# B1: ADI-48899 (antibody, V domains shown)
# VH: EVQLVESGGGLVQPGGSLRLSCAASGFIYTNYAMYWVRQAPGKGLEWVSAISGSGGITYYADSVKGRFTISRDNSKNTLYLQMNSLRAEDKAVYYCAKDGVTTINGWFHFEYWGQGTLVTVSS
# VL: DIQMTQSPSTLSASVGDRVTITCRASQSISSWLAWYQQKPGKAPKLLIYQASSLESGVPSRFSGSESGTEFTLTISSLQPDDFATYYCQQYNSFPFTFGPGTKVEIK
# notes: full-length IgG; also called Antibody Number 68
# B2: ADI-49145 (antibody, V domains shown)
# VH: EVQLLESGGGLVQPGGSLRLSCAASGFIFSDYYMDWVRQTPGKGPEWVGRITNRPNSYTTEYAASVKGRFTISRDDSTNSLFLHMNSLKTEDTAVYYCTRITGDRYWYLDLWGRGTLVTVSS
# VL: DIVLTQSPSSLSASVGDRVTITCRASQSINNYLNWYQQKPGKAPNLLIFGASTLQSGVPSRFTGSGSGTVFTLTISSLQRDDFVIYYCQQTYSASGSFGQGTKVEIK
# notes: full-length IgG; also called Antibody Number 69
# B3: ADI-49033 (antibody, V domains shown)
# VH: EVQLVESGGGLVQPGGSLRLSCAASGLIFRNYAMSWVRQAPGKGLEWVSSFSGSGGSAYYADSVKGRFTISRDNSKSTVYLQMNRLRVEDTAVYYCAKDMAVSVHRGWFDDWGQGTLVTVSS
# VL: EIVMTQSPSALSASVRDRVTITCRASQSIGSDLNWYQQRPGKAPMLLIYAATGLQSGVPSRFSGSGSGTDFTLTISNLQPEDFATYYCQQSYSPPMYTFGQGTKVDIK
# notes: full-length IgG; also called Antibody Number 7
# B4: ADI-46729 (antibody, V domains shown)
# VH: EVQLVESGPGLVKPSQTLSLTCTVSGGSISSGSYYWSWIRQPAGKGLEWIGRIYTSGSTNYNPSLKSRVTMSVDTSKNQFSLKLSSVTAADTAVYYCARGWFGYSNYGLYYYYGMDVWGQGTTVTVSS
# VL: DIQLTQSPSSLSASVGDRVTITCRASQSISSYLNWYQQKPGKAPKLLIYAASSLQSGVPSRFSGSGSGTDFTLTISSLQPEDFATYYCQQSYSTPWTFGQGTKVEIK
# notes: full-length IgG; also called Antibody Number 70
# B5: ADI-46722 (antibody, V domains shown)
# VH: EVQLVESGPGLVKPSGTLSLTCAVSGGSISSSNWWSWVRQPPGKGLEWIGEIYHSESTNYNPSLKSRVTISVDKSKNQFSLKLSSVTAADTAVYYCARDFWSGSNWFDPWGQGTLVTVSS
# VL: QSALIQPPSVSAAPGQKVTISCSGSSSNIGNNYVSWYQQLPGTAPKLLIYDNNKRPSGIPDRFSGSKSGTSATLGITGLQTGDEADYYCGTWDNSLGVVFGGGTQLTVL
# notes: full-length IgG; also called Antibody Number 71
# B6: ADI-45148 (antibody, V domains shown)
# VH: EVQLLESGGGLVQPGRSLRLSCAASGFTFDDYAMHWVRQAPGKGLEWVSGISWNSGSIGYADSVKGRFTISRDNAKNSLYLQMNSLRAEDTALYYCAKDIGDSYGSGSYYLPYGAYYGMDVWGQGTTVTVSS
# VL: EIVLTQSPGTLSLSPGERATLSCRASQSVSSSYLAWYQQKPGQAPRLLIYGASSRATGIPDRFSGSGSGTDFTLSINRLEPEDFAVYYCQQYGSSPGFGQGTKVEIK
# notes: full-length IgG; also called Antibody Number 72
# B7: ADI-49168 (antibody, V domains shown)
# VH: EVQLLESGGGLVQPGGSLRLSCAASGFTFSSYAMSWVRQATGRGLEWVSSIRSSGGRTEYADSVKGRFTISRDNSKNTLYLQMDSLRAEDTALYYCAKHYDSSGYYYEDYWGQGTLVTVSS
# VL: DIVLTQSPSTLSASVGDRVTITCRASQSISDWLAWYQQKPGKAPGLLIYRASGLESGVPSRFSGSGSGTEFTLTISSLQPDDFATYYCHQYKDFPWTFGQGTKVDIK
# notes: full-length IgG; also called Antibody Number 73
# B8: ADI-49040 (antibody, V domains shown)
# VH: EVQLVESGGALVHPGGSLGLSCAASGFTFSDHYMDWVRQAPGKGLEWVGRIRNKPNSYATQYAASVKGRFTISRDDSKKSLYLQMNSLNTEDTAVYYCARVRDGEYDYWGQGTLVTVSS
# VL: DIQMTQSPSTLSASVGDRVTITCRASQSISTWLAWYQLKPGKAPKLLIYKASNLQSGVPSRFSGSGSGTEFTLTISSLQPDDFATYYCQQYNSYSPWGQGTKLEIK
# notes: full-length IgG; also called Antibody Number 74
# B9: ADI-42187 (antibody, V domains shown)
# VH: EVQLLESGGGLVKPGGSLRLSCAASGFTFSSYSMNWVRQAPGKGLEWVSSISSRSSFMYYADSVKGRFTISRDNAKNSLYLQMNSLRVEDTAVYYCARDNSEVEDYGDYVLYHYYGMDVWGQGTTVTVSS
# VL: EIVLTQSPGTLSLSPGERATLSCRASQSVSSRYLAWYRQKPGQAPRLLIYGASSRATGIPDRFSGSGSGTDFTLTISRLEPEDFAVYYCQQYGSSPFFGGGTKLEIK
# notes: full-length IgG; also called Antibody Number 75
# Target: T1, recombinant YFV E protein (soluble E, sE; YFV Asibi strain) (Yellow fever virus, Asibi strain, UniProt Q6DV88 286-678)
# T1 construct: also called YFV E antigen; YFV E monomer
# T1 sequence (Q6DV88 286-678): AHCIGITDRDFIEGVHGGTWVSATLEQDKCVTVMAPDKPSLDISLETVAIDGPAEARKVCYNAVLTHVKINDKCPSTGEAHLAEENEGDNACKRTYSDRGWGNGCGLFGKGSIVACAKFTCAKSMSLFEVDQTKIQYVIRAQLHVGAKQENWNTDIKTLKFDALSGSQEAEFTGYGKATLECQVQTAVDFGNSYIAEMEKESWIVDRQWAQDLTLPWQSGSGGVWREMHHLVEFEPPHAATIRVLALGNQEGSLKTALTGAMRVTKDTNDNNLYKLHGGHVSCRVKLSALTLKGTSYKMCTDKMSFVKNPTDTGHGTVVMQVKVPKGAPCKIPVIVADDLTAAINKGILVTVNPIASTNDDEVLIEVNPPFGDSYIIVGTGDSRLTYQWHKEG
# Experiment: BLI monovalent (IgG on tip)
row,Binder,Kd [nM]
1,B1,434
2,B2,1.05
3,B3,18
4,B4,> 100
5,B5,> 100
6,B6,> 100
7,B7,24.1
8,B8,0.999
9,B9,4.01

# From patent publication US20240218054A1 (MABLOC, published 2024)
